Experiment [1] has as its target T1, F-actin (rabbit skeletal α-actin, polymerized) (rabbit, UniProt P68135 1-377). Kind of experiment: ADP-F-actin.
The target in experiment [2] is T1, F-actin (rabbit skeletal α-actin, …). Kind of experiment: ADP-BeF3- F-actin.
Experiment [3] shares this target. Description: ADP-F-actin (- BeF3-).
For experiment [4], the target named is T2, bovine brain Arp2/3 complex (bovine, UniProt P61157 1-418; A7MB62 1-394; Q58CQ2 1-372; Q3MHR7 1-300; Q3T035 1-178; Q148J6 …). Description: ITC; ADP-bound Arp2/3 complex.
Experiment [5] concerns the target T2, bovine brain Arp2/3 complex. Description: ITC; ATP-bound Arp2/3 complex.

B1: human Coro7 β1 (domain or fragment)
chain: MNRFRVSKFRHTEARPPRRESWISDIRAGTAPSCRNHIKSSCSLIAFNSDRPGVLGIVPLQGQGEDKRRVAHLGCHSDLVTDLDFSPFDDFLLATGSADRTVKLWRLPGPGQALPSAPGVVLGPEDLPVEVLQFHPTSDGILVSAAGTTVKVWDAAKQQPLTELAAHGDLVQSAVWSRDGALVGTACKDKQLRIFDPRTKPRASQSTQAHENSRDSRLAWMGTWEHLVSTGFNQMREREVKLWDTRFFSSALASLTLDTSLGCLVPLLDPDSGLLVLAGKGERQLYCYEVVPQQPALSPVTQCVLESVLRGAALVPRQALAVMSCEVLRVLQLSDTAIVPIGYHVPRKAVEFHEDLFPDTAGCVPATDPHSWWAGDNQQVQKVSLNPACRPHPSFTSCLV
One may read the Kd as the equilibrium constant for the complex coming apart. A higher Kd goes with lower affinity. Consider B1, for which, in experiment [1], binding was characterised by a dissociation constant (Kd) of 5.5 µM.

B2: human Coro7 β1β2 (domain or fragment)
chain: MNRFRVSKFRHTEARPPRRESWISDIRAGTAPSCRNHIKSSCSLIAFNSDRPGVLGIVPLQGQGEDKRRVAHLGCHSDLVTDLDFSPFDDFLLATGSADRTVKLWRLPGPGQALPSAPGVVLGPEDLPVEVLQFHPTSDGILVSAAGTTVKVWDAAKQQPLTELAAHGDLVQSAVWSRDGALVGTACKDKQLRIFDPRTKPRASQSTQAHENSRDSRLAWMGTWEHLVSTGFNQMREREVKLWDTRFFSSALASLTLDTSLGCLVPLLDPDSGLLVLAGKGERQLYCYEVVPQQPALSPVTQCVLESVLRGAALVPRQALAVMSCEVLRVLQLSDTAIVPIGYHVPRKAVEFHEDLFPDTAGCVPATDPHSWWAGDNQQVQKVSLNPACRPHPSFTSCLVPPAEPLPDTAQPAVMETPVGDADASEGFSSPPSSLTSPSTPSSLGPSLSSTSGIGTSPSLRSLQSLLGPSSKFRHAQGTVLHRDSHITNLKGLNLTTPGESDGFCANKLRVAVPLLSSGGQVAVLELRKPGRLPDTALPTLQNGAAVTDLAWDPFDPHRLAVAGEDARIRLWRVPAEGLEEVLTTPETVLTGHTEKICSLRFHPLAANVLASSSYDLTVRIWDLQAGADRLKLQGHQDQIFSLAWSPDGQQLATVCKDGRVRVYRPRSGPEPLQEGPGPKGGRGARIVWVCDGRCLLVSGFDSQSERQLLLYEAEALAGGPLAVLGLDVAPSTLLPSYDPDTGLVLLTGKGDTRVFLYELLPESPFFLECNSFTSPDPHKGLVLLPKTECDVREVELMRCLRLRQSSLEPVAFRLPRVRKEFFQDDVFPDTAVIWEPVLSAEAWLQGANGQPWLLSLQPPDMS
B2 yielded a Kd in experiment [1] of 5.2 µM.

B3: human Coro7 full length (Coro7 FL) (natural protein)
chain: MNRFRVSKFRHTEARPPRRESWISDIRAGTAPSCRNHIKSSCSLIAFNSDRPGVLGIVPLQGQGEDKRRVAHLGCHSDLVTDLDFSPFDDFLLATGSADRTVKLWRLPGPGQALPSAPGVVLGPEDLPVEVLQFHPTSDGILVSAAGTTVKVWDAAKQQPLTELAAHGDLVQSAVWSRDGALVGTACKDKQLRIFDPRTKPRASQSTQAHENSRDSRLAWMGTWEHLVSTGFNQMREREVKLWDTRFFSSALASLTLDTSLGCLVPLLDPDSGLLVLAGKGERQLYCYEVVPQQPALSPVTQCVLESVLRGAALVPRQALAVMSCEVLRVLQLSDTAIVPIGYHVPRKAVEFHEDLFPDTAGCVPATDPHSWWAGDNQQVQKVSLNPACRPHPSFTSCLVPPAEPLPDTAQPAVMETPVGDADASEGFSSPPSSLTSPSTPSSLGPSLSSTSGIGTSPSLRSLQSLLGPSSKFRHAQGTVLHRDSHITNLKGLNLTTPGESDGFCANKLRVAVPLLSSGGQVAVLELRKPGRLPDTALPTLQNGAAVTDLAWDPFDPHRLAVAGEDARIRLWRVPAEGLEEVLTTPETVLTGHTEKICSLRFHPLAANVLASSSYDLTVRIWDLQAGADRLKLQGHQDQIFSLAWSPDGQQLATVCKDGRVRVYRPRSGPEPLQEGPGPKGGRGARIVWVCDGRCLLVSGFDSQSERQLLLYEAEALAGGPLAVLGLDVAPSTLLPSYDPDTGLVLLTGKGDTRVFLYELLPESPFFLECNSFTSPDPHKGLVLLPKTECDVREVELMRCLRLRQSSLEPVAFRLPRVRKEFFQDDVFPDTAVIWEPVLSAEAWLQGANGQPWLLSLQPPDMSPVSQAPREAPARRAPSSAQYLEEKSDQQKKEELLNAMVAKLGNREDPLPQDSFEGVDEDEWD
For the molecule B3, the Kd is 37.4 µM in experiment [2], 9.9 µM in experiment [3] and 9.9 µM in experiment [1].

On to SDQQKKEELLNAMVAKLGNREDPLPQDSFEGVDEDEWD (domain or fragment) [human Coro7 CA (C-terminal Central-Acidic region of coronin 7)], for which the Kd in experiment [4] is 0.9 µM; in experiment [5], 1.9 µM.

B4: human Coro7 β2 (domain or fragment)
chain: KFRHAQGTVLHRDSHITNLKGLNLTTPGESDGFCANKLRVAVPLLSSGGQVAVLELRKPGRLPDTALPTLQNGAAVTDLAWDPFDPHRLAVAGEDARIRLWRVPAEGLEEVLTTPETVLTGHTEKICSLRFHPLAANVLASSSYDLTVRIWDLQAGADRLKLQGHQDQIFSLAWSPDGQQLATVCKDGRVRVYRPRSGPEPLQEGPGPKGGRGARIVWVCDGRCLLVSGFDSQSERQLLLYEAEALAGGPLAVLGLDVAPSTLLPSYDPDTGLVLLTGKGDTRVFLYELLPESPFFLECNSFTSPDPHKGLVLLPKTECDVREVELMRCLRLRQSSLEPVAFRLPRVRKEFFQDDVFPDTAVIWEPVLSAEAWLQGANGQPWLLSLQPPDMS
The molecule B4 registered a dissociation constant Kd in experiment [1] of 11 µM.
